Reference: patent US20150299726A1, “AHAS MUTANTS” (BASF PLANT SCIENCE GMBH, priority 2007, published 2015)

Tested on: AHAS minus E. coli
Assay: E. coli complementation assay, Arabidopsis AHASL mutants (AE plasmids) with imazethapyr
Format: cell-based
Conditions: colony size scored visually in the presence of imazethapyr
Text: Vectors AE10 through AE24 were made as follows. The wild type Arabidopsis thaliana AHAS large subunit gene was amplified under mutagenic conditions using the Genemorph II random mutagenesis kit (Stratagene, La Jolla, Calif.), resulting in randomly mutagenized amplified DNA fragments of this gene. This mutant DNA was then cloned back into AE7, replacing the wild type A. thaliana large subunit gene (between the unique SacII and AgeI sites on AE7) with the mutagenized forms. This DNA was transformed into E. coli strain TOP10 and selected on LB agar medium in such a fashion as to have a large number of unique transformants, each with independent, mutagenized AHAS genes. These colonies were scraped together and plasmid DNA was prepared from this entire primary library. This DNA was transformed into AHAS minus E. coli and again selected on LB agar media with carbenicillin. Plasmid positive colonies from this step were replica plated using velveteen onto minimal agar medium without branched chain amino acids and containing 30-micromolar imazethapyr.
The DNA sequence of the A. thaliana AHAS large subunit gene was determined for each of the growth positive colonies. […] Because the AHAS function and imidazolinone tolerance screen was on a secondary library, replicates of the same mutations were found, as determined by DNA sequence analysis. […]

B1: AE7: E. coli expression plasmid, Arabidopsis AHASL wild type (protein, UniProt P17597 56-670, looked up)
Acetolactate synthase, …: SSSPSSISAVLNTTTNVTTTPSPTKPTKPETFISRFAPDQPRKGADILVEALERQGVETVFAYPGGASMEIHQALTRSSSIRNVLPRHEQGGVFAAEGYARSSGKPGICIATSGPGATNLVSGLADALLDSVPLVAITGQVPRRMIGTDAFQETPIVEVTRSITKHNYLVMDVEDIPRIIEEAFFLATSGRPGPVLVDVPKDIQQQLAIPNWEQAMRLPGYMSRMPKPPEDSHLEQIVRLISESKKPVLYVGGGCLNSSDELGRFVELTGIPVASTLMGLGSYPCDDELSLHMLGMHGTVYANYAVEHSDLLLAFGVRFDDRVTGKLEAFASRAKIVHIDIDSAEIGKNKTPHVSVCGDVKLALQGMNKVLENRAEELKLDFGVWRNELNVQKQKFPLSFKTFGEAIPPQYAIKVLDELTDGKAIISTGVGQHQMWAAQFYNYKKPRQWLSSGGLGAMGFGLPAAIGASVANPDAIVVDIDGDGSFIMNVQELATIRVENLPVKVLLLNNQHLGMVMQWEDRFYKANRAHTFLGDPAQEDEIFPNMLLFAAACGIPAARVTKKADLREAIQTMLDTPGPYLLDVICPHQEHVLPMIPSGGTFNDVITEGDGRIKY
E. coli Imazethapyr Tolerance Score: − (IN)
